# Laboratory results reported in patent US20170253633A1 (IMMATICS BIOTECHNOLOGIES, published 2017).
# Biological target: T1, HLA-A*02:01 (human)
# T1 construct: MHC monomer first loaded with a UV-sensitive peptide, which is cleaved by UV and exchanged with the test peptide; captured on streptavidin plates; also called peptide-receptive MHC molecules
# Assay: UV-ligand exchange + anti-b2m ELISA; +++ = peptide exchange yield >50
# From the text: Candidate peptides for T cell based therapies according to the present invention were further tested for their MHC binding capacity (affinity). The individual peptide-MHC complexes were produced by UV-ligand exchange, where a UV-sensitive peptide is cleaved upon UV-irradiation, and exchanged with the peptide of interest as analyzed. Only peptide candidates that can effectively bind and stabilize the peptide-receptive MHC molecules prevent dissociation of the MHC complexes. To determine the yield of the exchange reaction, an ELISA was performed based on the detection of the light chain (β2m) of stabilized MHC complexes. The assay was performed as generally described in Rodenko et al. (Rodenko et al., 2006).
# 96 well MAXISorp plates (NUNC) were coated over night with 2 ug/ml streptavidin in PBS at room temperature, washed 4× and blocked forth at 37° C. in 2% BSA containing blocking buffer. Refolded HLA-A*02:01/MLA-001 monomers served as standards, covering the range of 15-500 ng/ml. Peptide-MHC monomers of the UV-exchange reaction were diluted 100 fold in blocking buffer. Samples were incubated for 1 h at 37° C., washed four times, incubated with 2 ug/ml HRP conjugated anti-β2m for 1 h at 37° C., washed again and detected with TMB solution that is stopped with […]. Absorption was measured at 450 nm. Candidate peptides that show a high exchange yield (preferably higher than 50%, most preferred higher than 75%) are generally preferred for a generation and production of antibodies or fragments thereof, and/or T cell receptors or fragments thereof, as they show sufficient avidity to the MHC molecules and prevent dissociation of the MHC complexes.
row,Binder,peptide exchange yield
1,GQLDFSEFL (gene: S100A11),50 to 75%
2,SLIGGTNFV (gene: AP1B1),50 to 75%
3,YLDPNQRDL (gene: ZNF573),50 to 75%
4,"YLTNEGIQYL (genes: RPS10-NUDT3, RPS10)",50 to 75%
5,IVAPGTFEV (gene: ILF2),50 to 75%
6,LLDVTPKAV (gene: TJP2),50 to 75%
7,SLATLEGIQL (gene: ZNF236),50 to 75%
8,VLFGEITRL (gene: NDUFS2),50 to 75%
9,ILLRDLPTL (gene: FAM174B),50 to 75%
10,GLLSQGSPL (gene: GCLC),50 to 75%
11,TLIEDDALNGA (gene: HPGD),50 to 75%
12,YLAPENGYLMEA (gene: SNRNP70),50 to 75%
13,SLDEKQNLV (gene: METTL8),50 to 75%
14,"TLFPSKIGV (genes: MOB1A, MOB1B)",50 to 75%
15,FLLPLIIVL (gene: MR1),50 to 75%
16,GLLKAYSIRTA (gene: KRT7),50 to 75%
17,LLAGLLVGV (gene: C1orf159),50 to 75%
18,STTNGGILTV (gene: FYTTD1),50 to 75%
19,"FLEEKEQAAL (genes: TRIM16, CDRT1, TRIM16L)",50 to 75%
20,ALWDEFNQL (gene: TBX1),50 to 75%
21,TMIVSLAAV (gene: ARL6IP1),50 to 75%
22,FLGENISNFL (gene: APOL1),50 to 75%
23,ALYPGQLVQL (gene: ARHGAP9),50 to 75%

row,Binder,peptide exchange yield
1,YMLDIFHEVL (gene: HAS3),50 to 75%
2,RLLDFPTLLV (gene: MAP10),50 to 75%
3,SLDSSGFSL (gene: PARP4),50 to 75%
4,VLFNIDGQGNHV (gene: GATA3),50 to 75%
5,TLVTGLASV (gene: MFN1),50 to 75%
6,YLDPSLNSL (gene: CXorf57),50 to 75%
7,KLPEPPPLA (gene: ERV3-1),50 to 75%
8,KLNATNIEL (gene: PSMA5),50 to 75%
9,"GLAGPVRGV (genes: SNURF, SNRPB, SNRPN)",50 to 75%
10,VLANRVAVV (gene: DHRS2),50 to 75%
11,ILSAILVHL (gene: MROH2A),50 to 75%
12,YLAGEAPTL (gene: VARS),50 to 75%
13,LLYPTEITV (gene: ITGA3),50 to 75%
14,TLTSIIVAV (gene: MROH2A),50 to 75%
15,GLDSSVNVQGSVL (gene: WTAP),50 to 75%
16,QIWDKILSV (gene: DHRS2),50 to 75%
17,ALNDEINFL (gene: KRT7),50 to 75%
18,YLEPKLTQV (gene: PSME4),50 to 75%
19,IITKDLFQV (gene: DYNC1H1),50 to 75%
20,ALLDEQQVNV (gene: ID1),50 to 75%
21,ALSSPPPTV (gene: ZFYVE9),50 to 75%
22,AMASHLTST (gene: RBM4),50 to 75%
23,SIVDFLITA (gene: PPP1R13L),50 to 75%

row,Binder,peptide exchange yield
1,RLSQLEGVNV (gene as printed: VP535),50 to 75%
2,RLIDDMVAQA (gene: IDH1),50 to 75%
3,IIIPEIQKV (gene: CSE1L),50 to 75%
4,QMLELITRL (gene: DICER1),50 to 75%
5,GLAQDPKSLQL (gene: TTC28),50 to 75%
6,FLIDASQRV (gene: COL6A5),50 to 75%
7,QLAWFDTDL (gene: CTNNB1),50 to 75%
8,"QIDGTLSTI (genes: FBXO34, CHMP4C, CHMP4B, CHMP4BP1)",50 to 75%
9,VLMDDTDPL (gene: PSMC1),50 to 75%
10,GLSEPIFQL (gene: MFN1),50 to 75%
11,SLLDFERSL (gene: HPS3),50 to 75%
12,VLMDDTDPLV (gene: PSMC1),50 to 75%
13,ILLDTPLFL (gene: SERHL2),50 to 75%
14,VIADRVVTV (gene: VWA5B1),50 to 75%
15,ILVQVIPVV (gene: IRF6),50 to 75%
16,SLWEENQAL (gene: LAMA5),50 to 75%
17,SLATTLTKI (gene: COPB1),50 to 75%
18,ILDISRSEV (gene: GPR107),50 to 75%
19,YQAPDIDVQL (gene: GLTSCR2),50 to 75%
20,QLQGYLRSV (gene: RPL6),50 to 75%
21,ILGPQGNTI (gene: KHDRBS1),50 to 75%
